Data taken from article PMC1888833 (Nucleic Acids Research, 2007).

B1: HpDnaBDelN2 (N-terminal deletion mutant N2 of HpDnaB, lacking 133 N-terminal residues) (domain or fragment)
chain: AVEREVYALLNGSTIEGFRNIKEVLESAMDLITENQRKGSLEVTGIPTGFVQLDNYTSGFNKGSLVIIGARPSMGKTSLMMNMVLSALNDDRGVAVFSLEMSAEQLALRALSDLTSINMHDLESGRLDDDQWENLAKCFDHLSQKKLFFYDKSYVRIEQIRLQLRKLKSQHKELGIAFIDYLQLMSGSKATKERHEQIAEISRELKTLARELEIPIIALVQLNRSLENRDDKRPILSDIKDSGGIEQDADIVLFLYRGYIYQMRAEDNKIDKLKKEGKIEEAQELYLKVNEERRIHKQNGSIEEAEIIVAKNRNGATGTVYTRFNAPFTRYEDMPIDSHLEEGQETKVDYDIVTT
B2: Helicobacter pylori DnaB helicase, wild-type, full-length (enzyme, Helicobacter pylori (strain 26695), UniProt O25916 1-488, looked up)
chain: MDHLKHLQQLQNIERIVLSGIVLANHKIEEVHSVLEPSDFYYPPNGLFFEIALKLHEEDCPIDENFIRQKMPKDKQIKEEDLVAIFAASPIDNIEAYVEEIKNASIKRKLFGLANTIREQALESAQKSSDILGAVEREVYALLNGSTIEGFRNIKEVLESAMDLITENQRKGSLEVTGIPTGFVQLDNYTSGFNKGSLVIIGARPSMGKTSLMMNMVLSALNDDRGVAVFSLEMSAEQLALRALSDLTSINMHDLESGRLDDDQWENLAKCFDHLSQKKLFFYDKSYVRIEQIRLQLRKLKSQHKELGIAFIDYLQLMSGSKATKERHEQIAEISRELKTLARELEIPIIALVQLNRSLENRDDKRPILSDIKDSGGIEQDADIVLFLYRGYIYQMRAEDNKIDKLKKEGKIEEAQELYLKVNEERRIHKQNGSIEEAEIIVAKNRNGATGTVYTRFNAPFTRYEDMPIDSHLEEGQETKVDYDIVTT
B3: HpDnaBMut (ATP binding site mutant, R204 to C in the WALKER A domain) (enzyme, Helicobacter pylori (strain 26695), UniProt O25916 1-488, looked up)
chain: MDHLKHLQQLQNIERIVLSGIVLANHKIEEVHSVLEPSDFYYPPNGLFFEIALKLHEEDCPIDENFIRQKMPKDKQIKEEDLVAIFAASPIDNIEAYVEEIKNASIKRKLFGLANTIREQALESAQKSSDILGAVEREVYALLNGSTIEGFRNIKEVLESAMDLITENQRKGSLEVTGIPTGFVQLDNYTSGFNKGSLVIIGACPSMGKTSLMMNMVLSALNDDRGVAVFSLEMSAEQLALRALSDLTSINMHDLESGRLDDDQWENLAKCFDHLSQKKLFFYDKSYVRIEQIRLQLRKLKSQHKELGIAFIDYLQLMSGSKATKERHEQIAEISRELKTLARELEIPIIALVQLNRSLENRDDKRPILSDIKDSGGIEQDADIVLFLYRGYIYQMRAEDNKIDKLKKEGKIEEAQELYLKVNEERRIHKQNGSIEEAEIIVAKNRNGATGTVYTRFNAPFTRYEDMPIDSHLEEGQETKVDYDIVTT
B4: HpDnaBDelN3 (N-terminal deletion mutant N3 of HpDnaB, lacking 174 N-terminal residues) (domain or fragment)
chain: EVTGIPTGFVQLDNYTSGFNKGSLVIIGARPSMGKTSLMMNMVLSALNDDRGVAVFSLEMSAEQLALRALSDLTSINMHDLESGRLDDDQWENLAKCFDHLSQKKLFFYDKSYVRIEQIRLQLRKLKSQHKELGIAFIDYLQLMSGSKATKERHEQIAEISRELKTLARELEIPIIALVQLNRSLENRDDKRPILSDIKDSGGIEQDADIVLFLYRGYIYQMRAEDNKIDKLKKEGKIEEAQELYLKVNEERRIHKQNGSIEEAEIIVAKNRNGATGTVYTRFNAPFTRYEDMPIDSHLEEGQETKVDYDIVTT

Experiments:
HpDnaBDelN3 = HpDnaBDelN3 (Helicobacter pylori, UniProt O25916); conditions: labelled compound; pH 7.5, 4 °C, UV 254 nm
HpDnaBWt = HpDnaBWt (Helicobacter pylori, UniProt O25916); conditions: labelled compound; pH 7.5, 4 °C, UV 254 nm
SEC = target: the molecule itself; assay: SEC

Row | Molecule | UV cross-linking, SDS-PAGE, phosphorimager (HpDnaBDelN3) | UV cross-linking, SDS-PAGE, phosphorimager (HpDnaBWt) | stoichiometry N (SEC)
1 | Nc1ncnc2c1ncn2[C@@H]1O[C@H](COP(=O)(O)OP(=O)(O)OP(=O)(O)O)[C@@H](O)[C@H]1O [∝-32PATP] | Wild-type, DelN2 and DelN3 showed ATP binding | Wild-type, DelN2 and DelN3 showed ATP binding | –
2 | B1 | – | – | 6
3 | B2 | – | – | 6
4 | B3 | – | – | 6
5 | B4 | – | – | 2
